T1: Flag-tagged hPER1 (human Period 1, full-length open reading frame, amino acids 1 to 1289), O15534
T1 chain: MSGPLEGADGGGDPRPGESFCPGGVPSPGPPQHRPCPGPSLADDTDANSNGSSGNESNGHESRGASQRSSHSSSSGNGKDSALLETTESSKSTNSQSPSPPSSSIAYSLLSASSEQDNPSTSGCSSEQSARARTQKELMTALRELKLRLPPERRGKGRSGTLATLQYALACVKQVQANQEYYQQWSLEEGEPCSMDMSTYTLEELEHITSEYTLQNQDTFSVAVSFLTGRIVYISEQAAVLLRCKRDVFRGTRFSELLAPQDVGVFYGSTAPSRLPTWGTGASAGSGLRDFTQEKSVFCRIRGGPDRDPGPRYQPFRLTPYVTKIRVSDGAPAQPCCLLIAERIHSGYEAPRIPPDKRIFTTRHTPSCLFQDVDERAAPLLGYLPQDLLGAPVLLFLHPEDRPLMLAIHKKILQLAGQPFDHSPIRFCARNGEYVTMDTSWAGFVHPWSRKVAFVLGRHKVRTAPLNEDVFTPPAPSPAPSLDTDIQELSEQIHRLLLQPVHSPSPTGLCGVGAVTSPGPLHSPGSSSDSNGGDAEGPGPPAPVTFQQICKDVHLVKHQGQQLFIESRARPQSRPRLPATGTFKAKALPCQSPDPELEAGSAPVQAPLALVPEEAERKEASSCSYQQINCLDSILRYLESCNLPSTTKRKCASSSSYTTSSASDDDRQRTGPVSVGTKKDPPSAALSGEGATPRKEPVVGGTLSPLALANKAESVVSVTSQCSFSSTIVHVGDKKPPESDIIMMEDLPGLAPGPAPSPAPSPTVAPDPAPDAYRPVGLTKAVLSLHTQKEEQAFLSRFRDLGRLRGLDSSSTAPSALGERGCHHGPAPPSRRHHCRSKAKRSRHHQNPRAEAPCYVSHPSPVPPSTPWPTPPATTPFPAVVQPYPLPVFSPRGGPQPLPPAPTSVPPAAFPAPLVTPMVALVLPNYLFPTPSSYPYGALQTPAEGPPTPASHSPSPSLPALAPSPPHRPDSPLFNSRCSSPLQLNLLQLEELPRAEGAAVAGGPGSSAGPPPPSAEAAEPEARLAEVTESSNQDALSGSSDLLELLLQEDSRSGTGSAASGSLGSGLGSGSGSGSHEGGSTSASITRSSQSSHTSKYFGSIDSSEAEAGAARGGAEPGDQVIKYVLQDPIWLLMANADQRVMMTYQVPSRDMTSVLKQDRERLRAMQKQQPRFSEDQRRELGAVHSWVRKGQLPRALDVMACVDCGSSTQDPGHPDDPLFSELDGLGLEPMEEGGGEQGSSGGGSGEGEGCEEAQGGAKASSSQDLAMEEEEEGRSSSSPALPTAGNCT

T2: hPER2-C-terminal YGFP protein (human Period 2, full-length ORF), O15055
T2 sequence (O15055 whole entry, looked up): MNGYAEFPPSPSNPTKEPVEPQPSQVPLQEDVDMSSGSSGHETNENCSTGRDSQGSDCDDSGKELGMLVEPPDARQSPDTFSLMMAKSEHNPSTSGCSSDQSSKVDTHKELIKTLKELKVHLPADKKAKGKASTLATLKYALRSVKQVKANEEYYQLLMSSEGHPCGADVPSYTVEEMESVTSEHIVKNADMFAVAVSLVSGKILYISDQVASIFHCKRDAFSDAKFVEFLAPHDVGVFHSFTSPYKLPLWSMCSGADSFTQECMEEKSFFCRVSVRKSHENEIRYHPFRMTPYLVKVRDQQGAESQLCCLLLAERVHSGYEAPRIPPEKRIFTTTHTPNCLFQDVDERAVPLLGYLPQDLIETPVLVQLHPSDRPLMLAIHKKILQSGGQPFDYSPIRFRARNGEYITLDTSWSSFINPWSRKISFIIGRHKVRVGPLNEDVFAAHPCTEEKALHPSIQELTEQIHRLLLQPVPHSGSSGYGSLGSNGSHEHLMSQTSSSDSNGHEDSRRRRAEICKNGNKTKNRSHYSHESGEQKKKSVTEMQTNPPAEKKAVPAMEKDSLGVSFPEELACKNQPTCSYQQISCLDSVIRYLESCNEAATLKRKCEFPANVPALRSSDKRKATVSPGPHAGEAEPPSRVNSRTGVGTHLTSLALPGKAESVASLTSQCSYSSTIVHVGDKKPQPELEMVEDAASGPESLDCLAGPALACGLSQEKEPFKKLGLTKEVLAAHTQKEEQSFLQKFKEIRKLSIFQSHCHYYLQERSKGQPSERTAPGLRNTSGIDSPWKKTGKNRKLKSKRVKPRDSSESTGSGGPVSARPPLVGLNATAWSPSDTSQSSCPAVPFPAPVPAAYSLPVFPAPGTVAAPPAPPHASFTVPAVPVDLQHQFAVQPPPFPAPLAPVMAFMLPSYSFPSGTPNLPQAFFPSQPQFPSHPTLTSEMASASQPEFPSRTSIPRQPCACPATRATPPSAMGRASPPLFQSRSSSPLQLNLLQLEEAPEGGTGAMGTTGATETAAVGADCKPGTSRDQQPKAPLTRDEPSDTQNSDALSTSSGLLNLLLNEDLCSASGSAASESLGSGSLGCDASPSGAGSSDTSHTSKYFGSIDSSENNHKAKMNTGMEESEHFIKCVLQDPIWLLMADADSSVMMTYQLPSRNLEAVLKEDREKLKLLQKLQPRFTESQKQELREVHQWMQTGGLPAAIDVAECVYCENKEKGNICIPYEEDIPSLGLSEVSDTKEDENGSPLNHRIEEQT


Tests used:
[1] = biological target: T1, Flag-tagged hPER1 (human Period 1, …)
[2] = biological target: T2, hPER2-C-terminal YGFP protein (human …)

GST-IkBα, sequence (P25963 whole entry): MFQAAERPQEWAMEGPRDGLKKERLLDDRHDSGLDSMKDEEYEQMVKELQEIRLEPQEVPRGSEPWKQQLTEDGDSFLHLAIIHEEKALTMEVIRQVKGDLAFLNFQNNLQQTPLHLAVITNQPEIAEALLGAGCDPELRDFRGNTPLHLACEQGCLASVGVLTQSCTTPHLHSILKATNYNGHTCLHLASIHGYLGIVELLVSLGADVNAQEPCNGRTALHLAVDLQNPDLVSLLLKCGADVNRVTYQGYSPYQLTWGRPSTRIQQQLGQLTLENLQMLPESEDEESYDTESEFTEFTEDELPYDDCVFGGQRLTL

Protein	in vitro kinase assay, 32P autoradiography (casein)	in vitro kinase assay, 32P autoradiography (GST-IkBα)	in vitro kinase assay, 32P autoradiography [1]	P32 incorporation into hPER2 in cpm [2] [cpm]	Shift in hPER2 migration [2]	P32 incorporation [1]
recombinant his-tagged wild-type hCKIε, expressed in E. coli and purified (protein) MELRVGNKYRLGRKIGSGSFGDIYLGANIASGEEVAIKLECVKTKHPQLHIESKFYKMMQGGVGIPSIKWCGAEGDYNVMVMELLGPSLEDLFNFCSRKFSLKTVLLLADQMISRIEYIHSKNFIHRDVKPDNFLMGLGKKGNLVYIIDFGLAKKYRDARTHQHIPYRENKNLTGTARYASINTHLGIEQSRRDDLESLGYVLMYFNLGSLPWQGLKAATKRQKYERISEKKMSTPIEVLCKGYPSEFSTYLNFCRSLRFDDKPDYSYLRQLFRNLFHRQGFSYDYVFDWNMLKFGAARNPEDVDRERREHEREERMGQLRGSATRALPPGPPTGATANRLRSAAEPVASTPASRIQPAGNTSPRAISRVDRERKVSMRLHRGAPANVSSSDLTGRQEVSRIPASQTSVPFDHLGK	Recombinant hCKIε phosphorylates both casein and IkBα substrates	Recombinant hCKIε phosphorylates both casein and IkBα substrates	The presence of hCKIε results in phosphorylation of hPER1			
hCKIε-K38R, kinase-negative mutant of hCKIε, expressed in 293T cells (protein) MELRVGNKYRLGRKIGSGSFGDIYLGANIASGEEVAIRLECVKTKHPQLHIESKFYKMMQGGVGIPSIKWCGAEGDYNVMVMELLGPSLEDLFNFCSRKFSLKTVLLLADQMISRIEYIHSKNFIHRDVKPDNFLMGLGKKGNLVYIIDFGLAKKYRDARTHQHIPYRENKNLTGTARYASINTHLGIEQSRRDDLESLGYVLMYFNLGSLPWQGLKAATKRQKYERISEKKMSTPIEVLCKGYPSEFSTYLNFCRSLRFDDKPDYSYLRQLFRNLFHRQGFSYDYVFDWNMLKFGAARNPEDVDRERREHEREERMGQLRGSATRALPPGPPTGATANRLRSAAEPVASTPASRIQPAGNTSPRAISRVDRERKVSMRLHRGAPANVSSSDLTGRQEVSRIPASQTSVPFDHLGK				3000	-	
recombinant histidine-tagged hCKIε-K38R, expressed in bacteria and purified (protein) MELRVGNKYRLGRKIGSGSFGDIYLGANIASGEEVAIRLECVKTKHPQLHIESKFYKMMQGGVGIPSIKWCGAEGDYNVMVMELLGPSLEDLFNFCSRKFSLKTVLLLADQMISRIEYIHSKNFIHRDVKPDNFLMGLGKKGNLVYIIDFGLAKKYRDARTHQHIPYRENKNLTGTARYASINTHLGIEQSRRDDLESLGYVLMYFNLGSLPWQGLKAATKRQKYERISEKKMSTPIEVLCKGYPSEFSTYLNFCRSLRFDDKPDYSYLRQLFRNLFHRQGFSYDYVFDWNMLKFGAARNPEDVDRERREHEREERMGQLRGSATRALPPGPPTGATANRLRSAAEPVASTPASRIQPAGNTSPRAISRVDRERKVSMRLHRGAPANVSSSDLTGRQEVSRIPASQTSVPFDHLGK	does not phosphorylate either casein or GST-IkBα substrates	does not phosphorylate either casein or GST-IkBα substrates	hCKIε-K38R has no kinase activity towards hPER1			
HA-tagged hCKIε (human casein kinase I ε, wild type, expressed from pCEP4-CKIε in 293T cells) (protein) YPDYDVPDYAMELRVGNKYRLGRKIGSGSFGDIYLGANIASGEEVAIKLECVKTKHPQLHIESKFYKMMQGGVGIPSIKWCGAEGDYNVMVMELLGPSLEDLFNFCSRKFSLKTVLLLADQMISRIEYIHSKNFIHRDVKPDNFLMGLGKKGNLVYIIDFGLAKKYRDARTHQHIPYRENKNLTGTARYASINTHLGIEQSRRDDLESLGYVLMYFNLGSLPWQGLKAATKRQKYERISEKKMSTPIEVLCKGYPSEFSTYLNFCRSLRFDDKPDYSYLRQLFRNLFHRQGFSYDYVFDWNMLKFGAARNPEDVDRERREHEREERMGQLRGSATRALPPGPPTGATANRLRSAAEPVASTPASRIQPAGNTSPRAISRVDRERKVSMRLHRGAPANVSSSDLTGRQEVSRIPASQTSVPFDHLGK				5000	+	co-transfection of hPER2 or hPER1 with CKIe resulted in the incorporation of p32 into both PER proteins

From patent US6555328
